Where no end group is shown, it is not given here.
How the values were obtained:
[1] = molecular target: T1, Bcl-XL-GST fusion protein (Homo sapiens, UniProt Q07817); assay: Free purified polypeptide binding to Bcl-XL-GST fusion protein (additional selection, FIG. 9); conditions: purified free polypeptides
T1 construct: made in house; host or cells: E. coli BL21 (DE3) pLysS
Procedure: Detection of a polypeptide binding to a Bcl-XL-glutathione S-transferase (GST) fusion protein was carried out as follows. Twenty microliters of glutathione Sepharose 4B slurry (AP Biotech) was aliquoted to a microcentrifuge tube and washed with PBS. The Bcl-XL-GST fusion protein (60 μg), prepared as describe above, was added and allowed to bind to the Sepharose beads for 1 hr at 4° C. The beads were then re-washed in selection buffer (50 mM Tris-HCL pH 7.5, 150 mM KCl, 0.05% Triton X-100, 0.5 mg/ml BSA, and 0.1 mg/ml salmon sperm DNA). The Bcl-XL-GST beads were resuspended in 100 μl of selection buffer (approximately 11.5 μM Bcl-XL) and ^35S-labeled mRNA display construct or free peptide was added (approximately 10-60 nM) and incubated on a rotator for 1 hr at 4° C. The reaction was then transferred to a microcentrifuge column (BioRad) and unbound mRNA display constructs or free peptides were removed by a 10 sec spin at 1,000 rpm. The Sepharose beads were then washed three times with 500 μl of selection buffer. The extent of binding between the Bcl-XL-GST fusion protein and the mRNA display constructs or free peptides was determined by scintillation counting each fraction, including the recovered beads. […]

[2] = molecular target: T2, BH3 domain binding site on Bcl-XL (Homo sapiens, UniProt Q07817); assay: Competition assay with Bak BH3 domain peptide in the Bcl-XL binding assay; conditions: 20 μM Bak BH3 competitor (SEQ ID NO: 152); 100 μM for some polypeptides
T2 construct: made in house; host or cells: E. coli BL21 (DE3) pLysS
Procedure: (§1) Only three of the selected proteins (Bim, Bak, and Bax) were previously known to contain a BH3 domain. In order to determine if the other proteins bound to the BH3 domain binding site on Bcl-XL, a competition assay was performed. The Bak BH3 domain peptide used as a positive control was prepared by chemical synthesis and used to compete with individual Bcl-XL-binding polypeptides in a Bcl-XL binding assay. […] At a fixed concentration of immobilized Bcl-XL, the Bak BH3 domain-containing peptide […] (SEQ ID NO: 152), also containing a FLAG-M2 epitope, was added at the indicated concentration along with a trace amount of a selected Talin fragment. After binding for 1 hour, the unbound material was removed and the bound protein was quantitated. The bound protein was assayed by scintillation counting, normalized to that bound in the absence of competitor, and plotted versus competitor concentration.
A competition assay was performed for each of the selected Bcl-XL-binding polypeptides using 20 μM Bak BH3 competitor based on the titration shown in FIG. 6. Due to poor competition with the Bcl-XL-binding polypeptides having the lowest Kd values (as determined above) a second competition was performed for some of these polypeptides using 100 μM competitor (FIG. 3A).

[3] = molecular target: T3, human Bcl-XL-GST fusion protein (human, UniProt P08515 1-218 = GST; Q07817 1-211); assay: free peptide on immobilized Bcl-XL-GST with Bak BH3 competitor
T3 construct: Made in E. coli, immobilized on glutathione Sepharose beads; whole entry named; also called Bcl-XL-glutathione S-transferase (GST) fusion protein; GST-BCL-XL
Procedure: as §1
A competition assay was performed for each of the selected Bcl-XL-binding polypeptides using 20 μM Bak BH3 competitor based on the titration shown in FIG. 6.

[4] = molecular target: T3, human Bcl-XL-GST fusion protein; assay: 35S-labeled free peptide on Bcl-XL-GST beads, target concentration varied, scintillation counting; relative Kd
Procedure: Detection of a polypeptide binding to a Bcl-XL-glutathione S-transferase (GST) fusion protein was carried out as follows. Twenty microliters of glutathione Sepharose 4B slurry (AP Biotech) was aliquoted to a microcentrifuge tube and washed with PBS. The Bcl-XL-GST fusion protein (60 μg), prepared as describe above, was added and allowed to bind to the Sepharose beads for 1 hr at 4° C. The beads were then re-washed in selection buffer (50 mM Tris-HCL pH 7.5, 150 mM KCl, 0.05% Triton X-100, 0.5 mg/ml BSA, and 0.1 mg/ml salmon sperm DNA). The Bcl-XL-GST beads were resuspended in 100 μl of selection buffer (approximately 11.5 μM Bcl-XL) and ³⁵S-labeled mRNA display construct or free peptide was added (approximately 10-60 nM) and incubated on a rotator for 1 hr at 4° C. The reaction was then transferred to a microcentrifuge column (BioRad) and unbound mRNA display constructs or free peptides were removed by a 10 sec spin at 1,000 rpm. The Sepharose beads were then washed three times with 500 μl of selection buffer. The extent of binding between the Bcl-XL-GST fusion protein and the mRNA display constructs or free peptides was determined by scintillation counting each fraction, including the recovered beads.
Purified radioactively labeled protein from the individual clones was incubated with immobilized Bcl-XL-GST for one hour and, after washing, the amount bound was determined by scintillation counting. The binding at each concentration was normalized to that at the highest concentration and plotted versus concentration. FIG. 5 is a representational plot of the results of this binding assay. A selected Bak fragment ([…]; SEQ ID NO: 152), containing a FLAG-M2 epitope, was synthetically produced as a free protein and used in a binding assay in which the concentration of immobilized Bcl-XL-GST was varied from 11 nM to 28 μM. The amount of peptide bound to Bcl-XL was determined by scintillation counting and normalized to that bound at the highest concentration. Normalized binding was then plotted versus Bcl-XL concentration and fit to a binding curve using nonlinear regression. […] However, only binding curves that gave a high correlation coefficient ® value) were used to determine an affinity.

[5] = molecular target: T3, human Bcl-XL-GST fusion protein; assay: second mRNA display selection on immobilized Bcl-XL-GST
[6] = molecular target: T3, human Bcl-XL-GST fusion protein; assay: mRNA display selection on immobilized Bcl-XL-GST; cluster found among sequenced clones

T3 sequence (P08515 1-218, tags or fused parts left off): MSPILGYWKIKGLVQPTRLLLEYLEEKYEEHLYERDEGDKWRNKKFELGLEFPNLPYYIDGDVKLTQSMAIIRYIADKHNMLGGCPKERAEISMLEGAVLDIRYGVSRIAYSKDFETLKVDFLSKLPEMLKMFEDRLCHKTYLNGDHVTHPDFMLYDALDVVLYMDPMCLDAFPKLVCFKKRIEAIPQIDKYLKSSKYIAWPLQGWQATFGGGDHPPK
T2 sequence (Q07817 1-211): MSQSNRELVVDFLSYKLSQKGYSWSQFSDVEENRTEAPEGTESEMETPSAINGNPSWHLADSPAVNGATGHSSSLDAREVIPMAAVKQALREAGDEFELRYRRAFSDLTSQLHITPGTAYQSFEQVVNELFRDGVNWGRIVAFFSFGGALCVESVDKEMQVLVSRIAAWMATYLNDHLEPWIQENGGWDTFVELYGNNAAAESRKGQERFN
T1 sequence (Q07817 1-211): as above

| Molecule | Kd [4] | further results |
| --- | --- | --- |
| Bmf: selected Bmf polypeptide of the additional selection, purified free polypeptide (KAEVQIARKLQCIADQFHRLHVL) | – | Binding to the Bcl-XL-GST fusion protein [1]: 6% |
| w75: selected Bcl-XL-binding polypeptide, SEQ ID NO: 37 (RTLQPRLLQNQQQHLPALPIWFLLQWLRLHPL; listed as Homo sapiens) | – | competition by Bak BH3 domain (BakBH3 effect), bound normalized to reaction without competitor [2]: not competed at all |
| x42: selected polypeptide, SEQ ID NO: 35; cDNA FLJ23277, Clone HEP03322 (Table 1) (NGNLFASFIADS) | – | competition by Bak BH3 domain (BakBH3 effect), bound normalized to reaction without competitor [2]: not competed at all |
| t53: selected Bcl-XL-binding polypeptide, SEQ ID NO: 25 (LDPVKDVLILSALRRMLWAADDFLEDLPFEQIG; listed as Homo sapiens) | – | competition by Bak BH3 domain (BakBH3 effect), bound normalized to reaction without competitor [2]: not competed at all |
| GGESDTDPHFQDALMQLAKAVASAAAALVLKAKSVAQR (mRNA display clone from a known polypeptide) [SEQ ID NO 6] | – | binding result [3]: binds |
| GQVGRQLAIIGDDINRRK [Bak, clone C32] | 402 nM | – |
| KYQQLFEDIRW (Second selection; clone from a known polypeptide) [SEQ ID NO 224] | – | binding result [5]: binds |
| ATRQALNEISARHSGIQQLERSIRELHDIFTFL [Syntaxin 4A, clone U58] | 640 nM | – |
| SRREEAWDALFRGI (Second selection) [SEQ ID NO 229] | – | binding result [5]: binds |
| MKWDTDNTLGTEISWENKLAEGLKLTLDTIFVHHVLHAPH-{FLAG‑M2 epitope} (also: 35S-Met labelled in vitro translation product) [Voltage dependent anion channel 3, clone W06] | 1120 nM | – |
| TGKEAILRRLVALLEEEAEVINQKLASDPALRSKLVRLSSDSFAHL (also called Bcl-2 related proline-rich protein BPR) [Bcl-2 related protein BPR, clone Y75] | 420 nM | – |
| MGDVVGFIDELEGAVSDLHRAL (Second selection; clone from a hypothetical or unknown polypeptide) [SEQ ID NO 227] | – | binding result [5]: binds |
| MFSDIYGIREIADGLCLEVEGKMVSRPE [Tumor protein HDCMB21P, clone V50] | 690 nM | – |
| IAQATKATIDKWNCIKLKIFYTSKKEAS-{FLAG‑M2 epitope} (also: 35S-Met labelled in vitro translation product) [Novel protein I, clone C21] | 70 nM | – |
| ALSWIEMDTEMEMLLARFRRTPGDLHLDHSVHLCAHP (mRNA display clone from a hypothetical or unknown polypeptide) [SEQ ID NO 33] | – | binding result [3]: binds |
| TLRHWGLQFNTRFGV (Second selection; clone from a hypothetical or unknown polypeptide) [SEQ ID NO 228] | – | binding result [5]: binds |
| MKWDTDNTLGTEISWENKLAEGLKLTLDTIFVHHVLHAPH (mRNA display clone from a known polypeptide) [SEQ ID NO 12] | – | binding result [3]: binds |
| QRGMLYYQTEKYDLAIKDLKEALIQLRGNN (fragment limits not in text) [Neutrophil cytosolic factor 2, clone T95] | 4.16 nM | – |
| RGLWVDRVLEEWGLEPRQ (Selected clone translated from the incorrect reading frame of the parent mRNA; not further characterized) [proline/glutamine rich splicing factor cluster polypeptide] | – | binding result [6]: binds |
| KLSECLKRIGDELDSNMELQRMIAAVDTDSPR (peptide, UniProt Q07812 58-89, looked up) [Bax, clone C49] | 760 nM | – |
| FWLEERDFEAGVFELEAIVNSIKRS [Toll-like receptor 3, clone U15] | 781 nM | – |
| ASMRQAEPADMRPEIWIAQELRRIGDEFNAYYARE (fragment limits not in text) [Bim, clone T44] | 2 nM | – |
| NGNLFASFIADS (mRNA display clone from a hypothetical or unknown polypeptide) [clone x42 (cDNA FLJ23277, Clone HEP03322)] | – | binding result [6]: binds |
| GGESDTDPHFQDALMQLAKAVASAAAALVLKAKSVAQR-{FLAG‑M2 epitope} (also: 35S-Met labelled in vitro translation product, fragment limits not in text; also called selected Talin fragment) [Talin (splice variant), clone X56] | 93 nM | – |
| GTRISDMLKLIADTWQRNCCPA-{FLAG‑M2 epitope} (cysteine pairing not given here; also: 35S-Met labelled in vitro translation product) [Novel protein D, clone T25] | 1610 nM | – |
| TLREIGDLYLTSILGRR (Second selection) [SEQ ID NO 230] | – | binding result [5]: binds |
| AVQEDPVQREIHQDWANREYIEIITSSIKKIAD (also called HSCP300) [HSPC300, clone C68] | 580 nM | – |
| GTRQDRMFETMAIEIEQLLARLTGVNDKMAEYTNA [Golgi SNAP receptor complex member 1, clone V06] | 467 nM | – |

Source: patent US20030032157A1, “Polypeptides interactive with Bcl-XL” (priority 2001, published 2003)
